Test results reported in patent publication US20230121197A1, “ANTIBODIES SPECIFICALLY BINDING THE CARBOXYMETHYLATED CATALYTIC SUBUNIT OF PROTEIN PHOSPHATASE 2A” (Medizinische Universität Wien, priority 2020, published 2023).

T1: PP2Ac C-terminal peptide meL309, ac-HVTRRTPDYFL-CH3 (α-carboxymethylated) (human, SMILES …)
T1 construct: also called Y307-meL309; mePP2Ac
T1 peptide: Ac-HVTRRTPDYFL-OMe

B1: 7C10-C5 monoclonal antibody (antibody, V domains shown)
VH: DVQLQESGPGLVKPSQSLSLTCSVTGYSITSGYYWNWIRQFPGNKLEWMGYISYDGSNNYNPSLKNRISITRDTSKNQFFLKLNSVTTEDTATYYCAGRFAYWGQGTLVTVSA
VL: DVLMTQTPLSLPVSLGDQASISCRSSQSIVHSNGNTYLEWYLQKPGQSPKLLIYKVSNRFSGVPDRFSGSGSGTDFTLKINRVEAEDLGVYYCFQGSHVPWTFGGGTKLEIK
notes: Used as hybridoma culture supernatant (ELISA, Western blot, IHC) or at 50 µg/mL (SPR); also called 7C10 X63; clone 7C10-C5
B2: 7C10-C5: α-carboxymethylation specific mouse monoclonal IgG1 antibody from single clone hybridoma 7C10-C5 (DSM ACC3350) (antibody)
heavy: MYRMQLLSCIALSLALVTNSDVQLQESGPGLVKPSQSLSLTCSVTGYSITSGYYWNWIRQFPGNKLEWMGYISYDGSNNYNPSLKNRISITRDTSKNQFFLKLNSVTTEDTATYYCAGRFAYWGQGTLVTVSAAKTTAPSVYPLAPVCGDTTGSSVTLGCLVKGYFPEPVTLTWNSGSLSSGVHTFPAVLQSDLYTLSSSVTVTSSTWPSQSITCNVAHPASSTKVDKKIEPRGPTIKPCPPCKCPAPNLLGGPSVFIFPPKIKDVLMISLSPIVTCVVVDVSEDDPDVQISWFVNNVEVHTAQTQTHREDYNSTLRVVSALPIQHQDWMSGKEFKCKVNNKDLPAPIERTISKPKGSVRAPQVYVLPPPEEEMTKKQVTLTCMVTDFMPEDIYVEWTNNGKTELNYKNTEPVLDSDGSYFMYSKLRVEKKNWVERNSYSCSVVHEGLHNHHTTKSFSRTPGK
light: MDMRVPAQLLGLLLLWLSGARCDVLMTQTPLSLPVSLGDQASISCRSSQSIVHSNGNTYLEWYLQKPGQSPKLLIYKVSNRFSGVPDRFSGSGSGTDFTLKINRVEAEDLGVYYCFQGSHVPWTFGGGTKLEIKADAAPTVSIFPPSSEQLTSGGASVVCFLNNFYPKDINVKWKIDGSERQNGVLNSWTDQDSKDSTYSMSSTLTLTKDEYERHNSYTCEATHKTSTSPIVKSFNRNEC
modifications: Amino acid sequence of the recombinant 7C10-C5 heavy chain; Amino acid sequence of the recombinant 7C10-C5 light chain

Columns and labels:
[1] = target: T1, PP2Ac C-terminal peptide meL309, …; assay: ELISA (FIG. 4)
Experimental: Nunc Medisorp 96-well ELISA flat-bottom plates were coated with peptides L309 (ac-[…]) (SEQ ID NO:18), meL309 (ac-[…]-CH₃) (SEQ ID NO:18) or amL309 (ac-[…]-NH₂) (SEQ ID NO:18) at 2 μg/ml in TBS at 4° C. over-night. After washing once with TBS, the wells were incubated with 2% BSA in TBS for 1 h at RT. After washing once with TBS, the wells were incubated with single clone hybridoma cell culture supernatant clone 7C10-C5 1:50 (˜1 μg/ml) in 1% BSA/TBS for 1 h at RT. After washing twice with TBS, wells were incubated with anti-mouse HRP-coupled secondary antibody for 1 h at RT, followed by washing 3× in PBS. Bound antibodies were detected by colorimetric reaction with 3,3′,5,5′-Tetramethylbenzidine as substrate, and absorbance was measured at 450 nm. Values were normalized to meL309 which was set to 1. Average and standard deviation of N=8 experiments are shown. Statistical significance was assessed using ANOVA followed by Tukey's HSD as a post-hoc test. P values are indicated with *, **, ***, which correspond to values of <0.05, <0.01, and <0.001. […]

[2] = target: T2, PP6c peptides L305, meL305 (Homo sapiens, UniProt O00743); assay: ELISA with PP6c C-terminal undecapeptides; assay type: binding
T2 construct: carboxymethylated versus non-methylated PP2Ac, PP4c and PP6c C-terminal undecapeptides
Experimental: To further characterize the carboxymethyl-PP2Ac specificity of monoclonal antibody 7C10-C5 ELISAs were performed on carboxymethylated versus non-methylated PP2Ac, PP4c and PP6c C-terminal undecapeptides.
Specifically, flat-bottom Nunc-Immuno Medisorp 96-well ELISA plates (Thermo; 467320) were coated o/n at 4° C. with 50 μl of either a peptide of the sequence ac-HVTRRTPDYFL-OH (L309) (SEQ ID NO:18) at a concentration of 2 μg/ml in TBS (137 mM NaCl (AppliChem, #131659, 2.7 mM KCl (AppliChem, #131494), 24.8 mM Tris (AppliChem, #A1086), pH 7.4 with HCl), a peptide of the sequence ac-HVTRRTPDYFL-CH3 (meL309) (SEQ ID NO:18) 2 μg/ml in TBS, with a peptide of the sequence (ac-PSKKPVADYFL (L307) (SEQ ID NO:20) at a concentration of 2 μg/ml in TBS or with a peptide of the sequence ac-PSKKPVADYFL-CH3 (meL307) (SEQ ID NO:20) at a concentration of 2 μg/ml in TBS, with a peptide of the sequence ac-IPPRTTTPYFL (L305) (SEQ ID NO:22) at a concentration of 2 μg/ml in TBS or with a peptide of the sequence ac-IPPRTTTPYFL-CH3 (meL305) (SEQ ID NO:22) at a concentration of 2 μg/ml in TBS. […] Bound antibodies were detected colorimetrically by addition of 50 μl of 33 μg/ml […] (TMB) (Sigma, T2885) in 0.1 M sodium acetate pH 6.0 and 0.01% H2O2 (Sigma, H1009). […] The results from 560 nm read were subtracted from the 450 nm read.

Molecule | fold stronger binding than to the amidated C-terminal part of PP2Ac (ELISA) [1] | carboxymethylated versus non-carboxymethylated PP6c peptide signal [2]
B1 | 6.15 fold | –
B2 | – | No significant difference
